Assay results: patent US20210347900A1 (AstraZeneca / MedImmune, published 2021)

T1: Human CLEC-7A (Dectin-1) (human, UniProt Q9BXN2-2 66-201, limits assumed)
T1 construct: Bought protein; also called C-type lectin domain family 7 member A
T1 sequence (looked up): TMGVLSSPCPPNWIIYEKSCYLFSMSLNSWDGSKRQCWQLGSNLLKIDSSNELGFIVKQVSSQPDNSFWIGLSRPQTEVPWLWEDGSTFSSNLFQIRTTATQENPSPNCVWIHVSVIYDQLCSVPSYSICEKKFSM

T2: Human CLEC-1A (human, UniProt Q8NC01 74-280, limits assumed)
T2 construct: Bought protein; also called C-type lectin domain family 1 member A
T2 sequence (looked up): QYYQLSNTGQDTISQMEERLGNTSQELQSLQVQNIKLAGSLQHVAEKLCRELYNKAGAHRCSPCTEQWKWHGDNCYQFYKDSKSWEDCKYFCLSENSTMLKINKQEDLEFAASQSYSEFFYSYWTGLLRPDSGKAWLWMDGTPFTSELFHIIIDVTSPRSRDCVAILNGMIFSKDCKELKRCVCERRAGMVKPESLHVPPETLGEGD

T3: Human CLEC-4L (DC-SIGN) (human, UniProt Q9NNX6 62-404)
T3 construct: Bought protein; also called C-type lectin domain family 4 member L
T3 sequence (looked up): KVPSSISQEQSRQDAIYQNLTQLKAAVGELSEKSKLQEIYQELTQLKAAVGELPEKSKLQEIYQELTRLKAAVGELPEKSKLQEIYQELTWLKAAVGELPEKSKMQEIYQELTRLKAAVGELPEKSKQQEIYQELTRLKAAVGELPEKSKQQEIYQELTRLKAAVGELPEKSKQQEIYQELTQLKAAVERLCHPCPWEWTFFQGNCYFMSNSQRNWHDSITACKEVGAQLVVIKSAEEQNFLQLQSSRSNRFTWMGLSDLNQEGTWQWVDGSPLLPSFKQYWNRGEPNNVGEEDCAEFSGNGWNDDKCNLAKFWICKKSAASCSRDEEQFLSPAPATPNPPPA

T4: Human SR-A1 (MSR) (human, UniProt P21757 77-451)
T4 construct: Bought protein; also called Macrophage scavenger receptor types I and II
T4 sequence (looked up): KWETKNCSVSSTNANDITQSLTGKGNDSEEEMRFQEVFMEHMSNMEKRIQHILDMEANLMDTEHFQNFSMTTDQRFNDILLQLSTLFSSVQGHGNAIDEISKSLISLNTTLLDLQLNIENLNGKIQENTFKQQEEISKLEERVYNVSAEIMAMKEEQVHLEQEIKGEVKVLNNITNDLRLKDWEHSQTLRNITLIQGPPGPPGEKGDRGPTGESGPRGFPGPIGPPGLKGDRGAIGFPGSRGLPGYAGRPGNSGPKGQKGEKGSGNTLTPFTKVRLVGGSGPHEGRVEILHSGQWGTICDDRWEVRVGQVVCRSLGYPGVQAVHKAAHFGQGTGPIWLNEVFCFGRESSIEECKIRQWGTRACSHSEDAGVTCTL


Key:
[1] = target: T1, Human CLEC-7A (Dectin-1); assay: IgG binding ELISA on coated antigen, absorbance at 450 nm;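 note: specificity panel of related human receptors, coated alongside human LOX1 as the binding positive control, with an isotype human IgG1-TM antibody setting the nonspecific background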
[2] = target: T2, Human CLEC-1A; assay: as above
[3] = target: T3, Human CLEC-4L (DC-SIGN); assay: as above
[4] = target: T5, Human CLEC-1B (CLEC-2) (human, UniProt Q9P126 58-229, limits assumed); assay: as above
T5 construct: Bought protein; also called C-type lectin domain family 1 member B

[5] = target: T4, Human SR-A1 (MSR); assay: as above
[6] = target: T6, Human SR-B3 (CD36) (human, UniProt P16671 30-439); assay: as above
T6 construct: Bought protein; also called Platelet glycoprotein 4

[7] = target: T7, mouse LOX1-(FlagHis) extracellular domain (mouse, UniProt Q9EQ09 55-363); assay: IgG binding ELISA on coated antigen, europium anti-human IgG detection
T7 construct: extracellular domain

[8] = target: T8, rat LOX1-(FlagHis) extracellular domain (rat, UniProt O70156 55-364); assay: as above
T8 construct: extracellular domain

[9] = target: T9, rabbit LOX1-(FlagHis) extracellular domain (rabbit, UniProt Q9XTA8 55-274); assay: as above
T9 construct: extracellular domain

[10] = target: T10, human LOX1 on cells (human LOX1 transfected CHO TREX cells) (human, UniProt P78380 1-273); assay: cell-based or functional assay
[11] = target: T11, cynomolgus LOX1-(FlagHis) extracellular domain (cynomolgus monkey, UniProt A0A2K5VQ73 76-291); assay: Biacore, antibody captured on protein G, LOX1 ECD as analyte
T11 construct: extracellular domain; Made in HEK293 EBNA cells; also called cynoLOX1; cyLOX

[12] = target: T10, human LOX1 on cells (human LOX1 …); assay: competition with DyLight 649 AGE-BSA on hLOX1 CHO TREX cells (FMAT), mean
[13] = target: T12, recombinant human LOX1 (R&D Systems) (human, UniProt P78380 61-273); assay: competition with biotin CRP on immobilised recombinant hLOX1 (DELFIA), mean
[14] = target: T13, human LOX1 SNP K167N variant on cells (K167N SNP transfected CHO TREX cells) (human, UniProt P78380 1-273); assay: competition with DyLight 649 oxLDL on K167N hLOX1 CHO TREX cells (FMAT), mean
T13 construct: whole, on cells; also called hLOX1 K167N; K167N hLOX1 CHO

[15] = target: T10, human LOX1 on cells (human LOX1 …); assay: competition with DyLight 649 oxLDL on human LOX1 CHO TREX cells, FMAT
[16] = target: T10, human LOX1 on cells (human LOX1 …); assay: competition with DyLight 649 oxLDL on hLOX1 CHO TREX cells (FMAT), mean; mean of n = 3
[17] = target: T12, recombinant human LOX1 (R&D Systems); assay: competition with biotin CRP on plate-bound recombinant human LOX1, DELFIA
[18] = target: T13, human LOX1 SNP K167N variant on cells …; assay: competition with DyLight 649 oxLDL on human LOX1 K167N CHO TREX cells, FMAT

T9 sequence (Q9XTA8 55-274): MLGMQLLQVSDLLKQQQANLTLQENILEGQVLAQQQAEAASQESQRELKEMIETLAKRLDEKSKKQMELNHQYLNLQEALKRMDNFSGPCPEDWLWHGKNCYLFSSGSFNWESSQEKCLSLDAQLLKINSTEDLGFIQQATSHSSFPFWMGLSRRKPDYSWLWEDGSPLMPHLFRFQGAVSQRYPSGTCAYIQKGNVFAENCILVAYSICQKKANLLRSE
T5 sequence (Q9P126 58-229 limits assumed): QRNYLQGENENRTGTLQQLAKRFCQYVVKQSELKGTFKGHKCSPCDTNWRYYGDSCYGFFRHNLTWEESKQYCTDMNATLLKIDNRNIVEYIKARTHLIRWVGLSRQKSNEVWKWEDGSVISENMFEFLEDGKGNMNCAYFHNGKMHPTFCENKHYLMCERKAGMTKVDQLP
T8 sequence (O70156 55-364): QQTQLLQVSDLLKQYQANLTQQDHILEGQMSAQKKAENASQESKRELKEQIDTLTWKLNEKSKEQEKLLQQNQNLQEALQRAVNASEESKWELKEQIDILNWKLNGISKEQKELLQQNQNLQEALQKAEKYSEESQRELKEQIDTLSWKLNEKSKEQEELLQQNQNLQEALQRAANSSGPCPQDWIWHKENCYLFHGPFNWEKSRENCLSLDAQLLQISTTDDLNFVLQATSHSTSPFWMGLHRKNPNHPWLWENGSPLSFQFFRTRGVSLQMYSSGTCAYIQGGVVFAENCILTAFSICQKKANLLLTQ
T6 sequence (P16671 30-439 limits assumed): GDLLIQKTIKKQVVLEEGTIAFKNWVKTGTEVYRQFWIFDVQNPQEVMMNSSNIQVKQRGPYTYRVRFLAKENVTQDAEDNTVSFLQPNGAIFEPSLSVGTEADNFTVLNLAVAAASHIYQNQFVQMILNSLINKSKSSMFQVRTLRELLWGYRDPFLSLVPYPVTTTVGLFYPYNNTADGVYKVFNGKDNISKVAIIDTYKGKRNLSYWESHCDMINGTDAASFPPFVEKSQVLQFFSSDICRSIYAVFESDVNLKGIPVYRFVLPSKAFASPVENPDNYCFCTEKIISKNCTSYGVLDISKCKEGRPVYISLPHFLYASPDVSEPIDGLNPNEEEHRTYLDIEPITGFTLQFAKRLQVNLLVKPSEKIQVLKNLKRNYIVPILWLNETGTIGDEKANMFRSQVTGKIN
T7 sequence (Q9EQ09 55-363): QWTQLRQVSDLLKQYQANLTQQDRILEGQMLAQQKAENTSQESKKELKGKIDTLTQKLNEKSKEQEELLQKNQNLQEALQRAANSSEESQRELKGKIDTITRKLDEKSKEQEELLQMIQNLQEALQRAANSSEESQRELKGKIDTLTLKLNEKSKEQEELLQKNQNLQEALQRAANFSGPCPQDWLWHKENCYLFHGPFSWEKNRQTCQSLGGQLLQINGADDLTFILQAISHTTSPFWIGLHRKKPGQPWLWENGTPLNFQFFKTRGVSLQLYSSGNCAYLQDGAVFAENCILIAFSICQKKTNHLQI

Row | Binder | binding result [1] | binding result [2] | binding result [3] | binding result [4] | binding result [5] | binding result [6] | binding result [7] | binding result [8] | binding result [9] | also measured
1 | LX6960073_gl IgG1-TM (antibody, V domains shown, Whole human IgG1-TM, germlined) VH: EVQLVESGGGLVQPGRSLRLSCAASGFTSDDYAMHWVRQAPGKGLEWVSGISWNSGSIGYADSVKGRFTISRDNAKNSLYLQMNGLRAEDTAVYYCAREGSWNYDALDIWGQGTMVTVSS VL: QSALTQPASVSGSPGQPITISCTGTSSDVGGYNYVSWYQQHPGKAPKLMIYDVSKRPSGVSNRFSGSKSGNTASLTISGLQAEDEADYYCMGGMGRSTNWVFGGGTKLTVL | no binding | no binding | no binding | no binding | no binding | no binding | no binding (tested: 10 µg/mL (single concentration)) | no binding (tested: 10 µg/mL (single concentration)) | no binding (tested: 10 µg/mL (single concentration)) | –
2 | LX5140110 IgG1-TM (antibody, V domains shown, Whole human IgG1-TM (L234F/L235E/P331S); also called LOX514110; LOX514_110) VH: QVQLVQSGAEVKKPGASVKVSCKVSGYTLTELSMHWVRQAPGKGLEWMGGFDPEDFKYHTHQKFQGRVTMTEDTSTDTAYMELSSLRSEDTAVYYCALVWGTQGKGVRGWDYYYGMDVWGQGTTVTVSS VL: QSVVTQPPSVSGAPGQRVTISCTGSSSNIGAGYDVHWYQQLPGTAPKLLIYGNSNRPSGVPDRFSGSKSGTSASLAITGLQAEDEADYYCQSYDSSLSGWVFGGGTKLTVL | no binding | no binding | no binding | no binding | no binding | no binding | no binding (tested: 10 µg/mL (single concentration)) | no binding (tested: 10 µg/mL (single concentration)) | binds | ROS ASSAY (IC50, mean) [10]: 1980 pM; oxLDL/hLOX1 CHO Internalisation (IC50, mean) [10]: 312 pM; Kd [11]: 154 pM; koff [11]: 0.000168 s⁻¹; kon [11]: 1.09e+06 M⁻¹ s⁻¹; IC50 [12]: 20.7 pM; IC50 [13]: 5020 pM; IC50 [14]: 492 pM; IC50 (read off the curve) [15]: ~1000 pM; IC50 [16]: 105 pM; IC50 (read off the curve) [17]: ~5000 pM; IC50 (read off the curve) [18]: ~400 pM
3 | LX5140093_N>D IgG1-TM (antibody, V domains shown, Whole human IgG1-TM; Heavy chain N96D (Kabat) variant of LX5140093; also called LX5140093_D) VH: QVQLVQSGAEVKKPGASVKVSCKVSGYTLTELSMHWVRQAPGKGLEWMGGFDPEDWAYHQAQKFQGRVTMTEDTSTDTAYMELSSLRSEDTAVYYCATPDGQQGKGVRGWDYYYGMDVWGQGTTVTVSS VL: QSVVTQPPSVSGAPGQRVTISCTGSSSNIGAGYDVHWYQQLPGTAPKLLIYGNSNRPSGVPDRFSGSKSGTSASLAITGLQAEDEADYYCQSYDSSHRAWAFGGGTKLTVL | no binding | no binding | no binding | no binding | no binding | no binding | no binding (tested: 10 µg/mL (single concentration)) | no binding (tested: 10 µg/mL (single concentration)) | no binding (tested: 10 µg/mL (single concentration)) | –
4 | LX5140108 IgG1-TM (antibody, V domains shown, Whole human IgG1-TM (L234F/L235E/P331S)) VH: QVQLVQSGAEVKKPGASVKVSCKVSGYTLTELSMHWVRQAPGKGLEWMGGFDPEDWSNHVSQKFQGRVTMTEDTSTDTAYMELSSLRSEDTAVYYCLTSTGRQGKGVRGWDYYYGMDVWGQGTTVTVSS VL: QSVVTQPPSVSGAPGQRVTISCTGSSSNIGAGYDVHWYQQLPGTAPKLLIYGNSNRPSGVPDRFSGSKSGTSASLAITGLQAEDEADYYCQSYDSSLSGWVFGGGTKLTVL | no binding | no binding | no binding | no binding | no binding | no binding | no binding (tested: 10 µg/mL (single concentration)) | no binding (tested: 10 µg/mL (single concentration)) | binds | –
5 | LX5140092_N>D IgG1-TM (antibody, V domains shown, Whole human IgG1-TM; Heavy chain N96D (Kabat) variant of LX5140092; also called LX5140092_D) VH: QVQLVQSGAEVKKPGASVKVSCKVSGYTLTELSMHWVRQAPGKGLEWMGGFDPEDWKYHLSQKFQGRVTMTEDTSTDTAYMELSSLRSEDTAVYYCATPDGTHQGGVRGWDYYYGMDVWGQGTTVTVSS VL: QSVVTQPPSVSGAPGQRVTISCTGSSSNIGAGYDVHWYQQLPGTAPKLLIYGNSNRPSGVPDRFSGSKSGTSASLAITGLQAEDEADYYCQSYDSSLSGWVFGGGTKLTVL | no binding | no binding | no binding | no binding | no binding | no binding | no binding (tested: 10 µg/mL (single concentration)) | no binding (tested: 10 µg/mL (single concentration)) | binds | –
